Experimental data: patent US20220411516A1 (Amgen, published 2022)

Target: T1, EGFRvIII (Epidermal Growth Factor Receptor Variant III) (human, UniProt P00533 298-1210)
T1 construct: also called Human EFGRvIII; de2-7EGFR
Experiment: IHC staining, titration of the primary antibody (5.5, 2.75, 1.375 µg/ml)

binding result: binds
B1: EGFRvIII antibody 1 (antibody, mouse IgG1, kappa, V domains shown)
VH: QVQLVESGGGVVQPGRSLRLSCAASGFTFSSYGMHWVRQAPGKGLEWVAVIWYDGSNKYYVDSVKGRFTISRDNSKNTLYLQMNSLRAEDTAVYYCARDGWQQLAPFDYWGQGTLVTVSA
VL: not shown
notes: also called first antibody; primary antibody
